The source of these data is PMC10643566, “Insights into the mechanism of SARS-CoV-2 main protease autocatalytic maturation from model precursors” (Communications Biology, 2023).

Assay [1] concerns the target mature MPro^R298A (SARS-CoV-2). Description: enzyme kinetics (K_dimer from kcat/Km and the slope of rate vs the square of the protein concentration); FRET substrate at 200 µM, buffer B (25 mM Tris-HCl, pH 7, 50 mM NaCl, 1 mM TCEP), 28 °C; kcat/Km determined with equimolar GC373; dimer to monomers.
In assay [2] the target is mature MPro^E290A (SARS-CoV-2). The description is as above.

As a reminder, the Kd is the equilibrium constant for the complex coming apart. A lower Kd goes with higher affinity. For the substance mature MPro^R298A (enzyme), in assay [1], the Kd came to 7.13 µM.

As for mature MPro^E290A (enzyme), in assay [2], the Kd worked out at 353 µM.
